Substrate: CC(=O)Nc1ccn([C@H]2C[C@H](O)[C@@H](CO)O2)c(=O)n1
Assay: purified protein
Type: biochemical, Escherichia coli
Details: 10 mM Tris-HCl pH 8.0, 22 °C, free enzyme

B1: YqfB (free wild-type YqfB, amidohydrolase YqfB) (Escherichia coli K-12) (protein)
chain: MQPNDITFFQRFQDDILAGRKTITIRDESESHFKTGDVLRVGRFEDDGYFCTIEVTATSTVTLDTLTEKHAEQENMTLTELKKVIADIYPGQTQFYVIEFKCL
notes: free wild-type YqfB
**Q.** Which results are given for B1?
**A.** Km: (4.9 ± 0.04) × 10^−4 M; kcat: 113 ± 1 s⁻¹; kcat/Km: 230000 M⁻¹ s⁻¹
